Data taken from the supplement of paper PMC9170038.

System: MS2 coat protein
Assay: apparent KD of MS2 coat protein; higher = weaker reporter binding
Details: Eterna round: R107; input ligand: arginine 13.2 mM
Summary of the method: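 Titration buffer: 100 mM Tris-HCl pH 7.5, 80 mM KCl, 4 mM MgCl2, without or with constant ligand. Designed RNA switches transcribed on-chip from Illumina sequencing clusters received SNAP-549-labelled MS2 coat protein in twofold steps from 0.7 or 1.5 nM to 3 µM. Apparent KD is the median per design of fits to normalised cluster binding curves.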

| Sequence | apparent KD of MS2 coat protein [nM] |
| --- | --- |
| GAUGAUAUUGCAGAUACCAGACACAUGAGGAUCACCCAUGUCGCUGGGUUACUGGGUCGUGUCCCUUGGCAGCUGCGAUAUCAUC [Belize] | 33.6 |
| CUAUAAGUAACUGAUACCAGUGUACUGACAUGAGGAUCACCCAUGUUGGGUUUUGUUGUACACCCUUGGCAGCAGAAUCUUAUAG [AstrosExyTheB#14] | 38.9 |
| CGUAUGUAGACGGCCGCCACUGGAACCUGAGGAUCACCCAGGUACAGGGUGGGUAACUCGAGAGUCAGGACCGGGUCUACAUACA [Tryp B Ex t3] | 19.4 |
| UAUAUAUAUCACGAACUGUGGUGUAUGUCCCGAGGACCGGUACGGCCGCCACUCGCGUGGUUCCACAUGAGGAUCACCCAUGUUG [XTryp A #7] | 20.9 |
| AGACUGUCUUCGGACAGUCCGGACAGCCCGCGAGGACCGGUACGGCCGCCACUCGCACGAGGAUCACCCGUGUGAGGCUGUCCGA [Omei Tryp A Exc A v2] | 9.87 |
| AGACCCUUCACGGCCGCCACUCAUUUUAAGUAGAGAGAGUACAUGAGGAUCACCCAUGUGAGAGAGAGGACCGGGUGAGAUAUUA [ss-trypB-0] | 13.9 |
| GCUAGUGGCAGAAGGAGCGAGGCCCGCGCACAUAACAUGAGGAUCACCCAUGUGGCGAGACCUCAGGUAGGUCGCUGCCACUAGC [EAB NP+V2 #1] | 12 |
| AAGAAAACAUGAGCAAAGCUCAUGUGCGAAGGAGCGGCGGAAACGCCAGGUAGGUCGCGCACAUGAGCAUCAGCCAUGUGUAUCA [Omei Arginine B SS A v3] | 43.5 |
| ACAUGAGGAUCACCCAUGUUGAACUACCAUCGAGGACCGGUACGGCCGCCACUCGCGUUCUCCUUAGCAUCAAGGUCCGCGAAAC [theeternabot_exclusion_MS2_Trp_A_1] | 10.3 |
| ACAUUUAACUGAAGGAGCGUGAUAUGUACAUGAGGAUCACCCAUGUCUUUCAUGUGAUUUUCACAGGUAGGUCGCAGACUAAUGA [JR_ExcArginiB_Sub003] | 11.8 |
| AACAUGAGGAUCACCCAUGUAUUGGGUGAUACCAGCCUGAAUAAUGGCCCUUGGCAGCACCGCGCUAACUUUAUGUCUGCGAAAC [Erterean] | 87.3 |
| CCUGCGUUUCUUUUCUUUCGCAGGAAUGAUACCAGUAGGGAAACCUACCCUUGGCAGCAUGGGUAACAUGAGGAUCACCCAUGUU [SSThA NP+V+V2 #5 Same Structure] | 93.2 |
| GAUUGGAUUUGAAGGAGCGUCGAAAAUGGGUAAACAUGAGGAUCACCCAUGUAAAGGGAACGACAGGUAGGUCGCAAAUUUAAUC [AstromonsSSArgB#31] | 84.7 |
| AUAUCUUCCACGGCCGCCACUGAAUGGUGCCCAAGGUCGAUCGCAGACAUGAGGAUCACCCAUGUCAGGACCGGGUGGUACUACG [theeternabot_exclusion_MS2_Trp_B_23] | 16.1 |
| GGUGGCGUGACGGAUACCAGCCACCACCGAUAGACCACAUGAGGAUCACCCAUGUUGGGUGGCCCUUGGCAGCUGUCGUGCGGCG [#1 Same State - Theophylline B Attempt #17 (HarryS)] | 82 |
| AUAACAGUGUCGGCCGCCACUAGAACACAUGAGGAUCACCCAUGUGGUGGUACCUCCUAAGACGAUAGGACCGGGACCCAUCUAC [theeternabot_exclusion_MS2_Trp_B_12] | 50.4 |
| AACUGAAGCACCUUAUGCGGCGGCAAAACCCGAGGACCGGUACGGCCGCCACUCGAGUCGCAACAUGAGGAUCACCCAUGUGUAU [theeternabot_exclusion_MS2_Trp_A_30] | 32.5 |
| GGUUACUCUACGGCCGCCACUGAUUAAUUAUAAUCCUGUACAUAAACAUGAGGAUCACCCAUGUACAGGACCGGGUAGUGUAACC [Tryptophan B 10] | 32.3 |

| Sequence | apparent KD of MS2 coat protein [nM] |
| --- | --- |
| CUCUCAUGAACAUGAGGAUCACCCAUGUAACGAGGACCGGUACGGCCGCCACUCGAACGUGGAAACCAAUCGAGUGAGGUGGGAG [Tryp A Ex t5b] | 45.9 |
| AAGCUGCCAAGAACAUGGGUGAAAUGUGAUACCAGCUAGGAAACUAGCCCUUGGCAGCACAUGAGGAUCACCCAUGUAAUAAUAA [(T)'-(M)'-(T1)-(T2)-(M1)-(M2)_Design2_2/19/17] | 75.7 |
| AUAUUAGACCUGGAUACCAGCGACAUGAGGAUCACCCAUGUAUGUGCAUCUGCCAUGAUAUGCCCUUGGCAGCCACCGAGGUCGU [CZZMULLIN] | 12.4 |
| CGUACAUGAGGAUCACCCAUGUUACAUGAUACCAGACAUGAAAAUGUCCCUUGGCAGCAUGGCGCUGAUAGGGCGGGAAACCCGA [Zabovresky] | 16.6 |
| AGUAAUCUAUCAGAUACCAGACCCUCUUUAACAUGAGGAUCACCCAUGUCUAUGUUCUACGUCCCUUGGCAGCUGUAAAUGAUAA [JR_SSTheophyB_Sub002] | 34.9 |
| AACAUGGGAUUAAAAUAAAUAAUAACUGAUACCAGACUAUAUAAUGUCCCUUGGCAGCAGAUACAUGAGGAUCACCCAUGUAUUA [JR_Nu_ExcTheophyA_Sub023] | 12.2 |
| UGUACCAUGUCGGCCGCCACUCAUGAUAAACAUGAGGAUCACCCAUGUAGCGUCAAAGACGCUAUGAGGACCGGGACAUGGUACU [TryBS Zipper 2 #StaticStem #Zipper] | 32.5 |
| GGGAUAUAGGCGGCCGCCACUGAUUUUCAUAUAUAUAUAACAUGAGGAUCACCCAUGUAGAUAUACAGGACCGGGCCUAUAUUUU [aaaD] | 14.8 |
| GUACAUGAGGAUCACCCAUGUAUAGUUGAAGGAGCGACCGGAGGGUCAGGUAGGUCGCAGCACAUGGCGUAAACCCGUGUAUGCC [#1 Exclusion - Arginine A Attempt #24 (Inspired by Pi)] | 18.5 |
| GUUGGUUUGGGAAGGAGCGGGUAUGUUGUCUACUUGAUCCUAACAUGAGGAUCACCCAUGUCCCAGGUAGGUCGCCCAAGCUUUG [12.aE] | 69.8 |
| UGGUAGCCACACUUCAAACAUCGACAAGAUACCAGUUAAUCAACGAACCCUUGGCAGCUUCGUACAUGAGGAUCACCCAUGUGGA [theeternabot_exclusion_MS2_Theo_A_6] | 18.2 |
| ACGAUAGGGCAUGAGGAUCACCCAUGUGAUACCAGCCUGGAAACAGGCCCUUGGCAGCAUUAAUACUCCAAUAACCUAUCGAAUA [TheoAX 17 #MicroSwitchBubble #AlternativeMS2] | 91.5 |
| CCGGGCCCGGGAGACCGGGCCCGGACUGAAGGAGCGGGAAUAAACCCAGGUAGGUCGCAGAGAUCCACAUGAGGAUCACCCAUGU [!0.U] | 133 |
| AGCCACUCGAACAUGGGUGACGAGUGGCAACGAGGACCGGUACGGCCGCCACUCGAAUAAACAUGAGGAUCACCCAUGUACAAAU [T''-M'-T'-T-MS2 - Design 9] | 33.1 |
| GGACUCGUCACGGCCGCCACUGCGGUGGUGUGACAUGAGGAUCACCCAUGUUGUCAUGCGGCCCUUAGGACCGGGUGUCGCGUCC [#1 Exclusion - Tryptophan B Attempt #25 (HarryS)] | 49.7 |
| AAACUGGGUGUAAAAUAAAUAAUCACUGAUACCAGACUAUUUUAUGUCCCUUGGCAGCAGAAACAUGAGGAUCACCCAUGUAAUA [JR_Nu_ExcTheophyA_Sub025] | 21.2 |
| AGUGGGUGUUAUGAUACCAGCGUAAUACACAACAUGAGGAUCACCCAUGUGGAGCCUCGCCGCCCUUGGCAGCAUUGGGCCCGCA [theeternabot_sameState_MS2_Theo_B_4] | 115 |
